Measured values: patent publication US20060099210

Experiments:
[1] = tested on: GST-2E11 (fusion protein between GST and a KCNQ2-15b polypeptide comprising exons 13, 14 and 15b; encoded by pGEX-2TK-2E11)
[2] = tested on: GST (glutathione S-transferase expressed from the pGEX2TK plasmid; negative control) [GST: P08515]
Sequence of GST (glutathione S-transferase expressed from the pGEX2TK plasmid; negative control) [GST: P08515] (P08515 whole entry): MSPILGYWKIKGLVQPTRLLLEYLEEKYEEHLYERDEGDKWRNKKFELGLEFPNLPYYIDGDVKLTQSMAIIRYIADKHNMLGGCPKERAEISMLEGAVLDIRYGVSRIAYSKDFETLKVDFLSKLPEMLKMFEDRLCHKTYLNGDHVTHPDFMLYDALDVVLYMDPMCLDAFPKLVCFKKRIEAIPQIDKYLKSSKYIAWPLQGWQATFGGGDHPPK

Sequence of GST-2E11 (fusion protein between GST and a KCNQ2-15b polypeptide comprising exons 13, 14 and 15b; encoded by pGEX-2TK-2E11) (chain, as listed by the source): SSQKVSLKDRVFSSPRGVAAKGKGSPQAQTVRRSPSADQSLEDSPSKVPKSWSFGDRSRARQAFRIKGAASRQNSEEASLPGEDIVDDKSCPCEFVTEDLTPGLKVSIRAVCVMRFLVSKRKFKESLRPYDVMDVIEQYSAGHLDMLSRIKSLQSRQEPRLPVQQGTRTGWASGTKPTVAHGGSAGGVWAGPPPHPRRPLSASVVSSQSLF

| Substance | in vitro phosphorylation with [32P]γATP, SDS-PAGE and autoradiography [1] | in vitro phosphorylation with [32P]γATP, SDS-PAGE and autoradiography (negative control with GST instead of GST-2E11) [2] | in vitro phosphorylation in the presence of 5 µg of CREB phosphopeptides as competitor [1] |
| --- | --- | --- | --- |
| Protein Kinase A Catalytic Subunit (PKA from bovine heart, Sigma) | a band located at a position corresponding to a protein of a size of about 45 kD did appear | No bands appeared in the three lines corresponding to the negative controls |  |
| recombinant GSK-3β kinase (New England Biolabs) | a band located at a position corresponding to a protein of a size of about 45 kD did appear | No bands appeared in the three lines corresponding to the negative controls | A band did still appear at a position corresponding to the size of GST-2E11, but the intensity of the band was very significantly lower |
